# According to the RNAGym collection of RNA variant scans (doi:10.1073/pnas.2313332121):
# B1: TPR t1 (parent)
# chain: GACCAAUCUGCCCUCAGAGCUCGAGAACAUCUUCGGAUGCAGAGGAGGCAGGCUUCGGUGGCGCGAUAGCGCCAACGUCCUCAACCUCCAAUGCAUCCCACCACAUGAUGAUGCCUGAAGAGCCUUGGUUUUUUG
# Variants of: B1
# Test: polymerase ribozyme fitness, log enrichment relative to wild type (log ratio); higher = more active; in vitro selection for triplet polymerase activity
# Procedure, shortened: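 Genotype fitness is the logarithm of its enrichment divided by wild-type enrichment, using inverse-variance-weighted averages of replicates. That logarithm is base 2. Enrichment was measured by Illumina sequencing of input and output libraries from one triplicate in vitro selection round, with frozen incubation at −7 °C, on PCR-built, transcribed mutant libraries of each subunit of a heterodimeric triplet polymerase ribozyme, retaining genotypes with ≥10 input reads and ≥1 read per output.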
row,Variant,polymerase ribozyme fitness (log ratio)
1,G19A U112G,-3.87
2,A18U G120U,-1.46
3,A18G C82A C94U,-4.18
4,G19C A24U G48U G52U C64G U109A G110U,-7.39
5,A18U A29G A43U G52A G60A C88U C94U,-5.06
6,A18G C40U C53U A83U G93C,-5.03
7,A18G G19A A43C C56U G110A,-2.58
8,A18U C64U C97U U116C G120A,-4.84
9,A18U C56U U87G U106C A121C,-0.72
10,G19A G48U C49U G69U U78C G93U,-3.08
11,A18C G48A,-2.74
12,A18U A46C G52A,-4.31
13,G19A G117A,-4.95
14,A18U G35U U54G C88A U112A,-7.02
15,A18G G113U,-4.5
16,A18G G113A,-1.78
17,A18U A46U G61U A90C C115G,-2.56
18,A18G U106A U109C,-3.8
19,A18C C72G C89G C114A U130A,-4.03
20,A18U G93C C97U G128U,-5.92
21,A18G C49U G107A,-5.11
22,A18C C89G U106A,-2.89
23,A18U G44A C94A C114A,-3.45
24,A18G C20U G39A A43G C49A A66U U78G,-6.02

row,Variant,polymerase ribozyme fitness (log ratio)
1,G19A C20A U59C U96A,-5.13
2,A18C G52A C72U,-2.39
3,A18C C73A,-2.69
4,A18C C73U,-2.53
5,A18C G69C,-4.31
6,G19A A43U C53U C56A G71C,-5.18
7,A18G C62U C86G,-4.96
8,A18U G57C G77U A105U U112C,-4.24
9,A18U A66U,-3.87
10,A18U A41U C56U C72A U133A,-3.75
11,G19A G42U G45C A50U,-4.81
12,G19A G61A,-2.53
13,G19A G71C,-3.41
14,A18G A43U G71A,-4.88
15,A18U C56U C123G U129A,-1.91
16,A18U C73U U96G C104U,-2.93
17,A18C G71C A121C C123U C124U,-3.96
18,G19A G51C,-5.83
19,G19A G51A,-5.49
20,A18C G42C G47A,-2.35
21,G19A G61C C73U C89A C114U U131G,-5.3
22,A18U C40A A41U,-3.61
23,A18U G61A,-1.19
24,A18U G61C,-5.22

row,Variant,polymerase ribozyme fitness (log ratio)
1,A18U C22G A66U U78C C82U,-6.51
2,A18U C88U A111U G127A,-5.73
3,A18C G61A C85G,-3.25
4,A18U C56U,-1.72
5,A18U U32A C56A A105C G120C G122A C124A,-4.84
6,A18U A91G,-1.85
7,A18C G35U A103U C115U,-4.68
8,G19A C62U U78C G127C,-4.4
9,A18C G61C C89G U116C C124A,-2.98
10,G19A A41U C53A G60C A121U,-5.24
11,A18U C53U C124G,-0.337
12,A18G G63C,-2.89
13,A18C C101A C123U G127A,-4.43
14,A18U U38G C56U C114A G135U,-2.6
15,G19A A41U C56G U59A,-5.05
16,A18C G71A,-4.91
17,A18U A41U,-2.88
18,A18U C53A,-2.38
19,G19A G58C C94G G120C,-3.72
20,A18G G61C C114U,-5.18
21,G19A G110A,-2.58
22,G19A G110U,-3.66
23,A18G G48U,-2.96
24,A18U C72U U78A,-2.59

row,Variant,polymerase ribozyme fitness (log ratio)
1,A18C G61C,-2.87
2,A18G C49A U92A C123A,-4.5
3,A18U C62U C86A C114U,-5.98
4,A18G G60U U96G A108U,-7.14
5,G19A C89A,-2.63
6,A18G C102G G110U,-5.75
7,A18G C31A C62U U112A C115U G122U,-5.9
8,A18U G52U U133A,-3.89
9,A18U C114A U125A U133G,-1.87
10,A18U C62U,-2.48
11,A18U C62G,-4.86
12,A18C C56A,-3.08
13,A18C C56U,-2.56
14,A18C G36C G57U,-4.25
15,A18U C20G A50U C72G G113A,-4.8
16,A18G G36U C56G,-6.14
17,A18U U21A G51C C53G C56A G57C C79U C115U U130G U131A,-5.86
18,A18U G45A,-2.78
19,A18G C70A,-4.01
20,A18G A27G,-4.94
21,A18U G47U C101A U109A G113A U116A,-6.66
22,A18U A83C C94G C115G C123G U134G,-1.77
23,A18G G69U C102U C115A,-5.41
24,A18G C64G C98U G117C,-5.51

row,Variant,polymerase ribozyme fitness (log ratio)
1,A18G G48U C72A U130G,-6.5
2,A18C G19A C85U G120A,-3.39
3,A18G U112A,-0.0704
4,A18U A26G C40G A43U C97A U112A,-6.73
5,G19A G47A,-4.12
6,A18U U129G,-3.92
7,A18U U129A,-4.3
8,A18G G107A,-3.37
9,A18G U21C G110A,-2.38
10,A18C U55G,-1.99
11,A18C U55C,-3.52
12,A18U U112G,-2.46
13,A18U U112A,-1.42
14,A18G C72U U81A A91U U96C G120A G128A,-6.28
15,A18U C79G G110A,-6
16,A18G G69U U81C G107U,-3.65
17,A18U G113U,-4.9
18,A18C G127C,-3.02
19,A18U C64U C72G A121G,-0.335
20,A18G G19U C49U C85U G110C U112G,-5.77
21,A18U C28U G36U C70U C79G G120A C124A,-6.76
22,G19A C88U,-2.19
23,A18C U54G U87G A121U,-0.603
24,A18C C101A,-3.03

row,Variant,polymerase ribozyme fitness (log ratio)
1,A18U C49G C88A C101A C123U U126A,-4.99
2,A18U A43G G60A U92C U112C,-0.561
3,G19A C76A C89G,-4.06
4,A18U C22U A37U A118U,-5.28
5,G19A C72A,-2.12
6,A18C U92C G117A G120U U129A,-5.88
7,A18U A41C C72G,-2.61
8,A18U A90C G120A,-0.842
9,A18G C20U A29U U32G C53A C97U,-2.71
10,A18U C79A G93A U116A C124U,-6.2
11,A18U G71U U92G,-5.1
12,A18U A83U C101A,-3.63
13,A18U G44A A46U G48C G61U C72U C98U,-5.97
14,A18U C85A,-4.19
15,A18G G42A G63U G113A U132A,-3.41
16,A18U C70G,-6.16
17,A18U C70U,-3.33
18,A18U C70A,-5.29
19,G19A U116G,-6.24
20,A18U G44C C73A A90C,-1.95
21,A18G C22G A27U G117C,-4.21
22,G19A A91G G117A,-5.25
23,G19C A37U A46C C72A C76U C82G C124A,-4.65
24,A18G C34G C70A U109A G128A,-5.92

row,Variant,polymerase ribozyme fitness (log ratio)
1,A18U G127C,-3.45
2,A18C C56A C73U C86U A90G U106A A108C U112A,-5.34
3,A18U U78A A95U C104U,-4.27
4,A18U U96A,-3.21
5,A18U C40U C72U U78G C123G G135C,-1.48
6,A18G A68U U87G U109A,-5.24
7,G19A U87G U109G,-4.8
8,G19A G60A A95U,-3.51
9,G19A C86G C101U,-4.15
10,G19A C123U,-2.48
11,A18U A50U,-4.84
12,A18U U112C G128A,-2.38
13,A18C U125G,-3.63
14,A18U G48U G61U C104U,-2.08
15,G19A G60A A90C,-2.74
16,A18U C70G C79A,-7.76
17,A18G G93C,-3.75
18,G19C A29U C79G U112C A119G,-4.42
19,A18C U55A G57C C70G C124A,-6.54
20,G19A G63C,-2.92
21,A18U C62U C64U A74C A90U A121C U129A,-6.59
22,G19A A37C G61U G120C,-2.13
23,A18C C56G C124A,-0.202
